# Patent publication US20250313627A1 (FUSE BIOTHERAPEUTICS, published 2025)
# Target: T1, human ROR1 (Receptor Tyrosine Kinase-Like Orphan Receptor 1) on the cell surface (human, UniProt Q01973 30-937)
# T1 construct: whole, on cells; engineered into B16-F10 (high density) and LS174T (low density) cells; also called B16-F10-ROR1-H; LS174T-ROR1-L
# Assay: flow cytometry, LS174T cells expressing human ROR1 (low density)
# Description: (§1) As shown in the tables below, mouse B16-F10 melanoma (Tables 9A-9F) or LS174T human colorectal adenocarcinoma (Tables 9G-9H) cells genetically engineered to express human ROR1 at high and low densities, respectively, were stained for flow cytometric analysis with 100 nM of humanized variants of the ROR1 specific VHHs, 5A1 or 2A11 in either a VHH-Fc format or the Ac13 format shown in FIG. 1. Cells were analyzed on a flow cytometer after the primary test article was fluorescently tagged with a goat anti human IgG-Fc specific PE secondary antibody. The positive control used was PE conjugated anti-human ROR1 clone 2A2. Negative controls included a PE labeled mouse IgG Ab, the secondary antibody only, the combination of a Hen Egg Lysozyme (HEL) specific antibody plus goat anti human IgG-Fc specific PE and Fluorescence Minus One (FMO). Other controls included the non-humanized version of 5A1-Fc (FUSE179), 2A11-Fc (FUSE112) and 5A1-Ac13 (FUSE488). Humanized variants were generated using computational design (FUSE489, FUSE497-498, FUSE563, FUSE569-570, and BI-HU9-VHH11-33), a yeast display library in which mutations were inserted into the Vernier zone residues of human framework indicated in GenBank accession number M99660 (FUSE524-525, FUSE589, FUSE597-598, FUSE537, FUSE661-662, BI-HU9-HK and BI-HU9-HK-1), and a second yeast display library in which mutations were inserted into the Vernier zone residues of human framework indicated in GenBank accession number AWH66715 and amino acid position 103 within CDR3 (FUSE559, FUSE590-596, BI-HU9-VH9-1, FUSE654-655 and FUSE661-662. Affinity matured variants of FUSE559 were also generated using computational design (F22158101-21; Table 9H).
# T1 sequence (Q01973 30-937): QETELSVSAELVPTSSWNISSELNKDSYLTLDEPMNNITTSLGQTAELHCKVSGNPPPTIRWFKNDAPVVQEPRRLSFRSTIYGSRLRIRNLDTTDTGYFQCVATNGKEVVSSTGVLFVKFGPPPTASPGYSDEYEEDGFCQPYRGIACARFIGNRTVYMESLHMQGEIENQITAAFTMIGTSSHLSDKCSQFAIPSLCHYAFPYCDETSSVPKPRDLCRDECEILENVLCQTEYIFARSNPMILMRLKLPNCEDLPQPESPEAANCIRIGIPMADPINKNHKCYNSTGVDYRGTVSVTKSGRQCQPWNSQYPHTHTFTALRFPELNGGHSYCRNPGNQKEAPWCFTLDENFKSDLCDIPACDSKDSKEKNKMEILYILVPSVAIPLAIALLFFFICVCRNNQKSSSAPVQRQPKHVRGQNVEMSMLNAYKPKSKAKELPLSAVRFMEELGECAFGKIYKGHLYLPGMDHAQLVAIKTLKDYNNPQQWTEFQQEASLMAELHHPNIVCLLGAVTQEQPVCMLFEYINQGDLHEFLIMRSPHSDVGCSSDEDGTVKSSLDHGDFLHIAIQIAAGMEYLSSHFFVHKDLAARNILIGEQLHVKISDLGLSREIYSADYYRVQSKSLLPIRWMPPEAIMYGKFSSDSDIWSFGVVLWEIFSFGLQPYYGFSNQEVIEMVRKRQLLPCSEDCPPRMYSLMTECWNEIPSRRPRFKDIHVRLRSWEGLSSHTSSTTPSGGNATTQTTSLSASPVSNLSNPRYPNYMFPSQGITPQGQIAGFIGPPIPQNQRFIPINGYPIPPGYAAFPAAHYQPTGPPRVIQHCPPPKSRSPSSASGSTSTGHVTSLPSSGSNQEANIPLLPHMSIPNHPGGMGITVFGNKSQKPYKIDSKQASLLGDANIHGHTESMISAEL
row,Binder,MFI
1,"FUSE-661 - h2A11-HK2-3-N84S Fc (Fc fusion, VHH-Fc format; not shown: Fc of the VHH-Fc format) EVQLLESGGGLVQPGGSLRLSCAASGSQRSANCMGWFRQAPGKDRELASMSIRSGRTYYADSVKGRFTISRDSSKNTLYLQMSSLKAEDTAVYYCAAAYGGSRCVYNYRGQGTLVTVSS",4880
2,"FUSE-662 - h2A11-HK2-16-N84S Fc (Fc fusion, VHH-Fc format; not shown: Fc of the VHH-Fc format) EVQLLESGGGLVQPGGSLRLSCAASGVGYSANCMGWFRQAPGKDRELASMSIRSGRTYYADSVKGRFTISRDSSKNTLYLQMSSLKAEDTAVYYCAAAYGGSRCVYNYRGQGTLVTVSS",4350
3,"FUSE-654 - h5A1-FA9-HK6-R19K Fc (Fc fusion, VHH-Fc format; not shown: Fc of the VHH-Fc format) EVQLLESGGGLVPRGGSLKLSCTASGYTNRLKCMGWFRQAPGKEREEIASISTGTGNTYYADSVKGRFTISQDKSRNTLYLQMNSLKAEDTAVYYCAADVRPRGTTCHYNSRGQGTQVTVSS",4560
4,"FUSE-655 - h5A1-FA9-HK6-N84S Fc (Fc fusion, VHH-Fc format; not shown: Fc of the VHH-Fc format) EVQLLESGGGLVPRGGSLRLSCTASGYTNRLKCMGWFRQAPGKEREEIASISTGTGNTYYADSVKGRFTISQDKSRNTLYLQMSSLKAEDTAVYYCAADVRPRGTTCHYNSRGQGTQVTVSS",4010

# Target: T1, human ROR1 (Receptor Tyrosine …)
# Assay: flow cytometry, B16-F10 cells expressing human ROR1 (high density)
# Description: as §1
row,Binder,MFI
1,"FUSE-489 (h5A1-Ac13) (bispecific antibody, human IgG1, lambda, L234A L235A, Format Ac13) heavy: EVQLVESGGGLVQPGGSLRLSCAASGFTFSTYAMNWVRQAPGKGLEWVARIRSKYNNYATYYADSVKDRFTISRDDSKNTLYLQMNSLRAEDTAVYYCARHGNFGNSYVSWFAYWGQGTMVTVSSASTKGPSVFPLAPSSKSTSGGTAALGCLVKDYFPEPVTVSWNSGALTSGVHTFPAVLQSSGLYSLSSVVTVPSSSLGTQTYICNVNHKPSNTKVDKKVEPKSCDKTHTCPPCPAPEAAGGPSVFLFPPKPKDTLMISRTPEVTCVVVDVSHEDPEVKFNWYVDGVEVHNAKTKPREEQYNSTYRVVSVLTVLHQDWLNGKEYKCKVSNKALPAPIEKTISKAKGQPREPQVYTLPPSREEMTKNQVSLSCAVKGFYPSDIAVEWESNGQPENNYKTTPPVLDSDGSFFLVSKLTVDKSRWQQGNVFSCSVMHEALHNRFTQKSLSLSPGK QVQLQESGGGLVQPGGSLRLSCTASGYTNRLKCMGWVRQAPGKEREEVATISTGTGNTYYADSVKGRFTISRDNSKNTLYLQMNSLRAEDTAMYYCAADVRPDGTTCHYNSGGQGTQVTVSSEPKSSDKTHTCPPCPAPEAAGGPSVFLFPPKPKDTLMISRTPEVTCVVVDVSHEDPEVKFNWYVDGVEVHNAKTKPREEQYNSTYRVVSVLTVLHQDWLNGKEYKCKVSNKALPAPIEKTISKAKGQPREPQVYTLPPSREEMTKNQVSLWCLVKGFYPSDIAVEWESNGQPENNYKTTPPVLDSDGSFFLYSKLTVDKSRWQQGNVFSCSVMHEALHNHYTQKSLSLSPGK light: QAVVTQEPSLTVSPGGTVTLTCRSSTGAVTTSNYANWVQQKPGQAPRGLIGGTNKRAPGTPARFSGSLLGGKAALTLSGVQPEDEAEYYCALWYSNLWVFGGGTKLTVLGQPKAAPSVTLFPPSSEELQANKATLVCLISDFYPGAVTVAWKADSSPVKAGVETTTPSKQSNNKYAASSYLSLTPEQWKSHRSYSCQVTHEGSTVEKTVAPTECSGGGGSGGGGSGGGGSGGGGSQVQLQESGGGLVQPGGSLRLSCTASGYTNRLKCMGWVRQAPGKEREEVATISTGTGNTYYADSVKGRFTISRDNSKNTLYLQMNSLRAEDTAMYYCAADVRPDGTTCHYNSGGQGTQVTVSS",1060
2,"FUSE-498 (h5A1-Ac13) (bispecific antibody, human IgG1, lambda, L234A L235A, Format Ac13) heavy: EVQLVESGGGLVQPGGSLRLSCAASGFTFSTYAMNWVRQAPGKGLEWVARIRSKYNNYATYYADSVKDRFTISRDDSKNTLYLQMNSLRAEDTAVYYCARHGNFGNSYVSWFAYWGQGTMVTVSSASTKGPSVFPLAPSSKSTSGGTAALGCLVKDYFPEPVTVSWNSGALTSGVHTFPAVLQSSGLYSLSSVVTVPSSSLGTQTYICNVNHKPSNTKVDKKVEPKSCDKTHTCPPCPAPEAAGGPSVFLFPPKPKDTLMISRTPEVTCVVVDVSHEDPEVKFNWYVDGVEVHNAKTKPREEQYNSTYRVVSVLTVLHQDWLNGKEYKCKVSNKALPAPIEKTISKAKGQPREPQVYTLPPSREEMTKNQVSLSCAVKGFYPSDIAVEWESNGQPENNYKTTPPVLDSDGSFFLVSKLTVDKSRWQQGNVFSCSVMHEALHNRFTQKSLSLSPGK EVQLVESGGGLVQPGGSLRLSCTASGYTNRLKCMGWFRQAPGKEREEIATISTGTGNTYYADSVKGRFTFSRDNSKNTLYLQMNSLRAEDTAVYYCAADVRPDGTTCHYNSGGQGTQVTVSSEPKSSDKTHTCPPCPAPEAAGGPSVFLFPPKPKDTLMISRTPEVTCVVVDVSHEDPEVKFNWYVDGVEVHNAKTKPREEQYNSTYRVVSVLTVLHQDWLNGKEYKCKVSNKALPAPIEKTISKAKGQPREPQVYTLPPSREEMTKNQVSLWCLVKGFYPSDIAVEWESNGQPENNYKTTPPVLDSDGSFFLYSKLTVDKSRWQQGNVFSCSVMHEALHNHYTQKSLSLSPGK light: QAVVTQEPSLTVSPGGTVTLTCRSSTGAVTTSNYANWVQQKPGQAPRGLIGGTNKRAPGTPARFSGSLLGGKAALTLSGVQPEDEAEYYCALWYSNLWVFGGGTKLTVLGQPKAAPSVTLFPPSSEELQANKATLVCLISDFYPGAVTVAWKADSSPVKAGVETTTPSKQSNNKYAASSYLSLTPEQWKSHRSYSCQVTHEGSTVEKTVAPTECSGGGGSGGGGSGGGGSGGGGSEVQLVESGGGLVQPGGSLRLSCTASGYTNRLKCMGWFRQAPGKEREEIATISTGTGNTYYADSVKGRFTFSRDNSKNTLYLQMNSLRAEDTAVYYCAADVRPDGTTCHYNSGGQGTQVTVSS",1360

# Target: T1, human ROR1 (Receptor Tyrosine …)
# Assay: as above
# Remark: another data set of the same source
# Description: as §1
row,Binder,MFI
1,"FUSE-560 (h2A11-HK2 Fc) (Fc fusion, VHH-Fc format; not shown: Fc of the VHH-Fc format) EVQLLESGGGLVQPGGSLRLSCAASGSTYSANCMGWFRQAPGKERELASMSIRSGRTYYADSVKGRFTISRDSSKNTLYLQMNSLKAEDTAVYYCAAAYGGSRCVYNYRGQGTLVTVSS",159000
2,"FUSE-562 (h2A11-HK4 Fc) (Fc fusion, VHH-Fc format; not shown: Fc of the VHH-Fc format) EVQLLESGGGLVQPGGSLRLSCAASGSTYSANCMGWFRQAPGKERELASMSIRSGRTYYSDSVKGRFTISRDGSKNTLYLQMNSLKAEDTAVYYCAAAYGGSRCVYNYRGQGTLVTVSS",155000
3,"FUSE-561 (h2A11-HK3 Fc) (Fc fusion, VHH-Fc format; not shown: Fc of the VHH-Fc format) EVQLLESGGGLVQPGGSLRLSCAASGSTYSANCMGWFRQAPGKERELASMSIRSGRTYYADSVKGRFTISRDSSKNTLYLQMNSLRAEDTAVYYCAAAYGGSRCVYNYRGQGTLVTVSS",157000
4,"BI-HU9-HK-1 h5A1 Fc (Fc fusion, VHH-Fc format; not shown: Fc of the VHH-Fc format) EVQLLESGGGLVQPGGSLRLSCAASGYTNRLKCMGWFRQAPGKEREEVASISTGTGNTYYADSVKGRFTISQDKSKNTLYLQMNSLKAEDTAVYYCAADVRPDGTTCHYNSRGQGTLVTVSS",136000
5,"BI-HU9-VHH31 h5A1 Fc (Fc fusion, VHH-Fc format; not shown: Fc of the VHH-Fc format) EVQLVESGGGLVQPGGSLRLSCAASGFTVRLKCMGWFRQAPGKGLEEVATISTGTGNTYYADSVKGRFTISRDNSKNTLYLQMNSLRAEDTAVYYCAADVRPDGTTCHYNSWGQGTTVTVSS",17900
6,"BI-HU9-VH9-1 h5A1 Fc (Fc fusion, VHH-Fc format; not shown: Fc of the VHH-Fc format) EVQLLESGGGLVPRGGSLRLSCTASGYTNRLKCMGWFRQAPGKEREEIATISTGTGNTYYADSVKGRFTISQDKSRNTLYLQMKTLRAEDTAVYYCAADVRPDGTTCHYNSWGQGTQVTVSS",16600
7,"BI-HU9-VH9 h5A1 Fc (Fc fusion, VHH-Fc format; same VHH as FUSE-497; not shown: Fc of the VHH-Fc format) EVQLLESGGGLVPRGGSLRLSCTASGYTNRLKCMGWFRQAPGKEREEIATISTGTGNTYYADSVKGRFTISRDNSRNTLYLQMKTLRAEDTAVYYCAADVRPDGTTCHYNSWGQGTQVTVSS",14400
